Test results: article doi:10.1101/2022.02.20.481182

How the values were obtained:
[1] = biological target: BRPF2 bromodomain F648A mutant (UniProt O95696); experiment: pull-down
[2] = biological target: BRPF2 bromodomain, wild-type, N-terminal His6-tagged (UniProt O95696); experiment: pull-down
[3] = biological target: BRPF2 bromodomain, wild-type, N-terminal His6-tagged (UniProt O95696); experiment: ITC

Chain of BRPF2 bromodomain, wild-type, N-terminal His6-tagged (O95696 556-688): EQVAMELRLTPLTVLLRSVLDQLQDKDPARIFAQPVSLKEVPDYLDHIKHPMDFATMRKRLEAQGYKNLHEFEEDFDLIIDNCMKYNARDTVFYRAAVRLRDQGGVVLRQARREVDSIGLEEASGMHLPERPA
Chain of BRPF2 bromodomain F648A mutant (O95696 556-688 F648A): as the sequence (O95696 556-688) above, with F93A counted along it

| Substance | fold reduction of binding against the wild type [1] | fold reduction of binding with BAY-299 against without inhibitor [2] | Kd [3] |
| --- | --- | --- | --- |
| endogenous hyperacetylated histone H4 bearing the K5ac mark (from UniProt P62805 1-103) (natural protein) | 1.5 fold | 3 fold | – |
| histone H2AK5ac (1-12) peptide (from UniProt P0C0S8 2-13) | – | – | 55.2 µM |
| histone H4Kac4 (H4K5/8/12/16) (1-20) peptide (from UniProt P62805 2-21) | – | – | 12.2 µM |
